In article PMC8755082, “Recognition of G-quadruplex RNA by a crucial RNA methyltransferase component, METTL14”:

Assays:
[1] = target: T1, METTL3 MTD (MTD3);METTL14 MTD-RGG (MTD14-RGG) (human?;human?, UniProt Q86U44;Q9HCE5 255-580;110-456, |); assay: EMSA; K+ buffer; EMSA: 2.5 nM RNA, 10 mM potassium (or lithium) phosphate pH 7.5, 25 uM ZnCl2, 10 uM SAM, 0.5 mM DTT, 0.005% Tween 20, 2.5% ficoll, 50 ng/uL yeast tRNA, 4 C, 1 h; GST-RGG: 25 mM Tris-HCl pH 7.5 with 10 mM KCl or LiCl instead of phosphate; conditions: protein: recombinant;recombinant, tags: Strep-tag II;His6, copies: 1;1, label: 5' FAM
[2] = target: T1, METTL3 MTD (MTD3);METTL14 MTD-RGG …; assay: EMSA; Li+ buffer; EMSA: 2.5 nM RNA, 10 mM potassium (or lithium) phosphate pH 7.5, 25 uM ZnCl2, 10 uM SAM, 0.5 mM DTT, 0.005% Tween 20, 2.5% ficoll, 50 ng/uL yeast tRNA, 4 C, 1 h; GST-RGG: 25 mM Tris-HCl pH 7.5 with 10 mM KCl or LiCl instead of phosphate; conditions: protein: recombinant;recombinant; tags: Strep-tag II;His6; copies: 1;1; label: 5' FAM; no G4
[3] = target: METTL3 MTD (MTD3);METTL14 MTD without RGG (MTD14) (human?;human?, UniProt Q86U44;Q9HCE5 255-580;110-413, |); assay: EMSA; K+ buffer; EMSA: 2.5 nM RNA, 10 mM potassium (or lithium) phosphate pH 7.5, 25 uM ZnCl2, 10 uM SAM, 0.5 mM DTT, 0.005% Tween 20, 2.5% ficoll, 50 ng/uL yeast tRNA, 4 C, 1 h; GST-RGG: 25 mM Tris-HCl pH 7.5 with 10 mM KCl or LiCl instead of phosphate; conditions: protein: recombinant;recombinant; tags: Strep-tag II;His6; copies: 1;1; label: 5' FAM; intramolecular parallel G4 in K+; unfolded in Li+
METTL3 MTD (MTD3);METTL14 MTD without RGG (MTD14), sequence (Q86U44 255-580, chain 1 of 2): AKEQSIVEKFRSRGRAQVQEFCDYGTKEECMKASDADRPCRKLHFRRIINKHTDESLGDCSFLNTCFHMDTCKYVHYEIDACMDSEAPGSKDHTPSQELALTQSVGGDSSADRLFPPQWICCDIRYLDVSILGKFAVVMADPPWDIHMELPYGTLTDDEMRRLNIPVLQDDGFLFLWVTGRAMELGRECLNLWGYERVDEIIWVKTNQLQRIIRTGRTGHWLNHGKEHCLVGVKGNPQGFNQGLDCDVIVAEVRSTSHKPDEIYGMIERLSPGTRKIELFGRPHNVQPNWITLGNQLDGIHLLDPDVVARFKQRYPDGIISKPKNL
METTL3 MTD (MTD3);METTL14 MTD without RGG (MTD14), sequence (Q9HCE5 110-413, chain 2 of 2): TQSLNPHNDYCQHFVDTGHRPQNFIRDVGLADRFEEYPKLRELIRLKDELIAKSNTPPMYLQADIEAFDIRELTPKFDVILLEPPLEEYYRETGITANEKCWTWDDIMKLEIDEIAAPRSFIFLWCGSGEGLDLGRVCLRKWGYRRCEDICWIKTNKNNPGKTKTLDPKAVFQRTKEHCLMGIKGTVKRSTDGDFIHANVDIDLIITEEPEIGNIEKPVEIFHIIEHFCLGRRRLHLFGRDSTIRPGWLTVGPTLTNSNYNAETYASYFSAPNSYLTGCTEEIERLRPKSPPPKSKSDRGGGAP

T1 sequence (Q86U44 255-580, chain 1 of 2): as the sequence (Q86U44 255-580, chain 1 of 2) above
T1 sequence (Q9HCE5 110-456, chain 2 of 2): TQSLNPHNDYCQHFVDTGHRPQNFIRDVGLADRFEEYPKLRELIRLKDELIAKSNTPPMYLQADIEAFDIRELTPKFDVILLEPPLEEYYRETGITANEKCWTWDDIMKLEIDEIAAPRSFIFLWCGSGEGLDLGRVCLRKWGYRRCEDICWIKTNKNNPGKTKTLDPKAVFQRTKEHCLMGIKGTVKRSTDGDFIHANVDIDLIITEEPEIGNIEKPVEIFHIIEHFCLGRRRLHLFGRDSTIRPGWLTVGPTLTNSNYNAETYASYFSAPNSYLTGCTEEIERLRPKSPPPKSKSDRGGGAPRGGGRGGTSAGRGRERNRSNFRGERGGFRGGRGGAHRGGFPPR

With UUAGGGUUAGGGUUAGGGUUUUAGACAUUUUUUAGGG (structured_RNA) [G4 RNA2] the Kd ([1]; intramolecular G4 in K+, loops 3-3-16) was 36 ± 11 nM.

Binder UGAGUGUGAGUGUUUUAGACAUUUUUGAGUGUGAGUG (ssRNA) [Non-G4 RNA1] has a Kd [2] of 149 ± 11 nM and a Kd ([1]; no G4) of 209 ± 94 nM.

In the case of UUAGGGUUAGGGUUAGGGUUAGGGAGACAUUUUUUUUUUUU (structured_RNA) [G4 RNA4], the Kd ([1]; intramolecular G4 in K+, loops 3-3-3) is reported as 35 ± 9 nM.

In the case of UUAGGGUUAGGGUUUUAGACAUUUUUUAGGGUUAGGG (structured_RNA) [G4 RNA1], the Kd [3] is reported as 419 ± 109 nM and the Kd ([1]; intramolecular parallel G4 in K+, unfolded in Li+) is reported as 35 ± 12 nM.

Work on UUUUUUUUUUUUUUAGGGUUAGGGAGACAUUAGGGUUAGGG (structured_RNA) [G4 RNA3] yielded a Kd ([1]; intramolecular G4 in K+, loops 3-8-3) of 29 ± 13 nM.

For UUUUUUUUUUUUUGAGUGUGAGUGAGACAUGAGUGUGAGUG (ssRNA) [Non-G4 RNA2], the Kd ([1]; no G4) was 309 ± 85 nM.
